Data taken from patent US20150376269A1 (Regeneron, published 2015).

T1: serum resistance-associated protein (SRA) from Trypanosoma brucei rhodesiense, recombinant SRA (SEQ ID NO: … (Trypanosoma brucei rhodesiense, UniProt O96637 31-274))
T1 construct: also called SRA protein
T1 sequence: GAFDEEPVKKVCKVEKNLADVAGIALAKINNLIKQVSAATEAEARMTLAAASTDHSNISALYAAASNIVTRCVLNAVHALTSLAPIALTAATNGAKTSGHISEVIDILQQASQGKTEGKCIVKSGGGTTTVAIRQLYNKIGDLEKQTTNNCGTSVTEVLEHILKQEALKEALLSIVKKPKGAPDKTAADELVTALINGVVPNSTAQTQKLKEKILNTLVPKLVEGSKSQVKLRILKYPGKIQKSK

T2: SRA.mmh
T2 construct: also called SRA.mmh (CHO)
T2 antigen: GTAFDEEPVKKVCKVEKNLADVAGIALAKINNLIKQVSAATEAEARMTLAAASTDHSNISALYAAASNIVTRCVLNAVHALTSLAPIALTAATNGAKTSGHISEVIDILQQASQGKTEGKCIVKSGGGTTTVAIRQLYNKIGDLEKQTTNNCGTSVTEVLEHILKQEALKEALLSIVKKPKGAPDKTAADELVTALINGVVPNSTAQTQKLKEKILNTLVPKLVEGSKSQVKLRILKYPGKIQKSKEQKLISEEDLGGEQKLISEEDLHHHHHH


What was measured:
[1] = biological target: T1, serum resistance-associated protein …; assay: SPR, 25C, t1/2 pH 7.4 over pH 4.5
Method: (§1) Equilibrium dissociation constants (KD) values for SRA binding to selected purified anti-SRA monoclonal antibodies were determined using a real-time surface plasmon resonance biosensor assay on a Biacore T200 instrument. […] SRA binding to the captured monoclonal antibodies was monitored for 4 min while the dissociation of mAb bound SRA was monitored for 7 min. Two different assays formats were adopted to characterize kinetics of SRA binding—(i) regular kinetics and (ii) pH4.5 chase. Regular kinetics experiments were performed using pH7.4 buffer as the running buffer and both the association and dissociation was performed in pH7.4. For the chase format, association and dissociation were performed in pH7.4 buffer and pH4.5 buffer respectively.
(§2) Kinetic association (kₐ) and dissociation (kd) rate constants were determined by processing and fitting the data to a 1:1 binding model using Scrubber 2.0c curve fitting software. Only the dissociation rate (kd) was calculated for the pH4.5 chase experiment. Binding dissociation equilibrium constants (KD) and dissociative half-lives (t½) were calculated from the kinetic rate constants as:

SRA.mmh [2] = biological target: T2, SRA.mmh; assay: Octet, mAb-2 at 50 ug/mL on captured SRA.mmh after negative control α-PRLR H1H6800P as mAb-1 (row 32 (-))
[3] = biological target: T1, serum resistance-associated protein …; assay: SPR, mAb captured, 50 nM SRA, pH 4.5, 25C
[4] = biological target: T1, serum resistance-associated protein …; assay: SPR, mAb captured, 25C, assoc. pH 7.4, dissoc. pH 4.5
Method: as §1, §2

[5] = biological target: T1, serum resistance-associated protein …; assay: SPR, mAb captured, pH 4.5, 25C; competitor biotin-mutant apoL1 peptide
[6] = biological target: T1, serum resistance-associated protein …; assay: SPR, mAb captured, pH 4.5, 25C; competitor biotin-apoL1 peptide
SRA.mmh [7] = biological target: T2, SRA.mmh; assay: Octet, SRA.mmh captured on anti-Penta-His tips, mAb-1 at 50 ug/mL for 5 min, 25 C, pH 7.4
[8] = biological target: T1, serum resistance-associated protein …; assay: SPR, mAb captured, 25C, pH 7.4
Method: as §1, §2

Row | Binder | t ½ ratio pH 7.4/pH 4.5 [1] | Binding of mAb-2 to SRA Pre-complexed with mAb-1 (SRA.mmh [2]) | 50 nM SRA binding (RU) [3] [RU] | t ½ [4] [h] | 50 nM SRA + 5 uM mutant apoL1 peptide binding (RU) [5] [RU] | % Blocking, Mutant apoL1 peptide [5] [%] | 50 nM SRA + 5 uM apoL1 peptide binding (RU) [6] [RU] | % Blocking, apoL1 peptide [6] [%] | 50 ug/mL mAb 1 Bound (nm) (SRA.mmh [7]) | Kd [8] [nM] | kon [8] [M⁻¹ s⁻¹] | t ½ [8] [h]
1 | H1H10058P (antibody, V domains shown, Fully human antibody with human IgG1 Fc (prefix H1H)) VH: EVQLVESGGGLVQPGGSLRLSCAASGFTFNDFFMSWVRQAPGKGLEWVANLNQDGSERHYVDSVKGRFTISRDNAKNSLSLQMNSLRVEDTAVYYCAREGGDSWGQGTLVTVSS VL: DIVMTQSPDSLAVSLGERVTINCKSSQSILYSANNKDYLAWFHQKPGQPPKLLIYWASIRESGVPDRISGSGSGTDFTLTISSLQAEDVAVYYCQQYYLFPPTFGQGTKVEIK | ≥ 1 | 1.27 | 59 | 4.05 | 56 | 5 | 57 | 4 | 1.44 | ≤ 0.0786 | 636000 | ≥ 3.85
2 | H1H10045P (antibody, V domains shown, Fully human antibody with human IgG1 Fc (prefix H1H)) VH: not shown VL: DIQMTQSPSFVSASVGDRVTISCRASQDIHTWLAWYQQKPGKAPNLLIYAASGLHSRAPSRFSGSGSGTDFTLTISSLQPEDFATYYCQKADRFPFTFGPGTKVDIK | – | 1.4 | 82 | ≥ 3.85 | 77 | 6 | 52 | 36 | 1.72 | ≤ 0.108 | 459000 | ≥ 3.85
3 | H1H10026P (antibody, V domains shown, Fully human antibody with human IgG1 Fc (prefix H1H)) VH: QVQLVESGGGVVQPGRSLRLSCEASGFTFSIYGMHWVRQAPGKGLEWVAVISYDGTNRYYADSVKGRFTISRDNSKNTLYLQMNSLRAEDTAVYYCAKVNIWNFLFDYWGQGTLVTVSS VL: EIVLTQSPGTLSLSPGERATLSCRASQSVSGNYLAWYQQKPGQAPRLLIYGPSSRATGIPDRFSGSGSGTDFTLTISRLEPEDFAVYYCQQYGTSLTFGGGTKVEIK | ≥ 2 | 1.64 | 104 | 1.75 | 106 | -2 | 84 | 19 | 1.45 | ≤ 0.0814 | 614000 | ≥ 3.85
4 | H1H10067P (antibody, V domains shown, Fully human antibody with human IgG1 Fc (prefix H1H)) VH: QVQLQESGPGLVKPSQTLSLTCIVSGGSISSGDYYWNWIRQHPGKGLEWIGDIYHSGDTYYNPSLKSRVTISLDTSKNQFSLKLSSLTAADTAVYYCARDRIVATGGGMDVWGQGTTVTVSS VL: DIQMTQSPSTLSASVGDRVTITCRASQSISSWLAWYQRKPGKAPNLLIYRSSSLESGVPSRFSGSGSGTEFTLTISSLQADDFVIYYCQQYNSYPYTFGQGTKLEIK | ≥ 4 | 1.41 | 85 | 0.933 | 82 | 4 | 98 | -16 | 1.52 | ≤ 0.0557 | 897000 | ≥ 3.85
5 | H1H10027P (antibody, V domains shown, Fully human antibody with human IgG1 Fc (prefix H1H)) VH: EVQLVESGGALVQPGRSLTLSCAASGFTFDDYTMHWVRQTPGKGLEWVSGILWNSDNLVYADSVKGRFTISRDNAKNSLYLQMNSLRVEDTALYYCTKEIDYLTLGGNAFDVWGQGTMVTVSS VL: DIQMTQSPSTLSASVGDRITITCRASQNINYWLAWYQQKPGKAPKLLIYKASSLAGGVPSRFSGSGSGTDFTLTINSLQPDDFATYYCQKYNTYSLNFGGGTKVEIK | ≥ 3 | 1.55 | 95 | 1.4 | 92 | 4 | 118 | -24 | 1.5 | ≤ 0.0376 | 1.33e+06 | ≥ 3.85
6 | H2aM10201N (antibody, V domains shown, Chimeric antibody, human variable domains and mouse constant domains (mouse Fc, prefix H2aM); also called H2M10201N) VH: QVQLLESGGGVVQPGKSLRLSCVASGSIFSIYGMNWVRQAPGKGLEWVASVSSDGSAKFYADSVKGRFTISRDNSNDTLFLQMTSLRAEDTAVYYCAKTLWNYLFDSWGQGTLVTVSS VL: ENVLTQSPDTLSLSPGERATLSCRASQSITSNYLAWYQQKPGQTPRLLISFTSRRATGIPDRFSGSGSGTVFTLTISRLEPEDFAVYYCQQYGTSLTFGGGAKVEIR | 109 | 1.31 | 109 | 0.0117 | 108 | 0 | 42 | 61 | 1.27 | 0.245 | 642000 | 1.23
7 | H1H10056P (antibody, V domains shown, Fully human antibody with human IgG1 Fc (prefix H1H)) VH: QVQLVESGGGVVQPGRSLRLSCSASGFTFSLYGMHWIRQAPGKGLEWVAVISYDGSNTYYGDSVKGRFTISRDNSKNTLYLQMNSLRTEDTAIYYCAKVYNWNYLFDYWGQGTLVTVSS VL: EIVLTQSPDTLSLSPGERATLSCRASQNVNNNFLAWYQQKPGQAPRLLIYGASSRATDIPERFSGSGSGTDFTLTISRLEPEDFAVYYCLHYVNSRTFGQGTKVEIK | ≥ 31 | 1.28 | 72 | 0.117 | 67 | 7 | -4 | 100 | 1.3 | ≤ 0.134 | 372000 | ≥ 3.85
8 | H1H10064P (antibody, V domains shown, Fully human antibody with human IgG1 Fc (prefix H1H)) VH: QVQLVQSGAEVKKPGSSVKVSCKASGGSFSSNVFSWVRQAPGQGLEWMGGIIPIFGSANYAQKFQGRVTITTDESTTTAYMELSSLRSEDTAVYYCAIGGTGPSGYNWNYGAFYIWGQGTMVTVSS VL: DIQMTQSPSSLSASVGDRVTITCRASQGIRNDLGWYQQKPGIAPKRLIYAASSLQSGVPSRFSGSGSGTEFTLTISSLQPEDFATYYCLQHNSYPYTFGQGTKLEIK | 9 | 1.22 | 76 | 0.025 | 67 | 11 | -11 | 100 | 1.25 | 0.546 | 1.6e+06 | 0.217
9 | H1H10031P (antibody, V domains shown, Fully human antibody with human IgG1 Fc (prefix H1H)) VH: EVQLVESGGNVVRPGGSLRLSCSGSGFAFENYGMSWVRQGPGKGLEWVSNINWNGGSLNYVDSVKGRFTISRDNAKNSLYLQMNSLRAEDTALYYCARVIVYGMDVWGQGTTVTVSS VL: DIQMTQSPSSLSASVGDRVTITCRASQGIRNGLGWFQQKPGKAPKRLIYATSSLQSGVPSRFSGSGSGTEFTLTISSLQPEDFATYYCLQSNSYPWTFGQGTKVEIK | ≥ 1 | 1.58 | 60 | 3.32 | 57 | 6 | 45 | 25 | 1.59 | ≤ 0.095 | 526000 | ≥ 3.85
10 | H2aM10200N (antibody, V domains shown, Hybridoma-derived chimeric antibody, human variable domains and mouse constant domains (mouse Fc, prefix H2aM); also called H2M10200N) VH: QVQLVQSGAEVKKPGSSVKVSCKASGGTFSSYAISWVRQAPGQGLEWMGGIIPFFGTATYAQKFQGRVTITTDESTRTVYMELSSLRYEDTAVYYCARWYSGYGGDFDYWGQGTLVTVSS VL: AIQMTQSPSSLSASVGDRVTITCRASQGIRNDLGWFQQKPGKAPKLLIYAASSLQSGVPSRFSGSGSGTDFTLSISSLQPEDFATYYCLQDYSYPRTFGQGTKVEIK | 77 | 1.28 | 159 | 0.0333 | 150 | 5 | -2 | 100 | 1.59 | 0.0996 | 844000 | 2.28
